Test results as given in PMC9164399, “The PRMT5-LSD1 axis confers Slug dual transcriptional activities and promotes breast cancer progression” (Journal of Experimental & Clinical Cancer Research : CR, 2022).

B1: GST-fused Slug (natural protein, human, UniProt O43623 1-268, looked up)
chain: MPRSFLVKKHFNASKKPNYSELDTHTVIISPYLYESYSMPVIPQPEILSSGAYSPITVWTTAAPFHAQLPNGLSPLSGYSSSLGRVSPPPPSDTSSKDHSGSESPISDEEERLQSKLSDPHAIEAEKFQCNLCNKTYSTFSGLAKHKQLHCDAQSRKSFSCKYCDKEYVSLGALKMHIRTHTLPCVCKICGKAFSRPWLLQGHIRTHTGEKPFSCPHCNRAFADRSNLRAHLQTHSDVKKYQCKNCSKTFSRMSLLHKHEESGCCVAH
notes: Slug (SNAI2), cDNA in the bacterial expression vector pGEX-KG; also called GST-Slug
B2: Flag-Slug (natural protein)
chain: MPRSFLVKKHFNASKKPNYSELDTHTVIISPYLYESYSMPVIPQPEILSSGAYSPITVWTTAAPFHAQLPNGLSPLSGYSSSLGRVSPPPPSDTSSKDHSGSESPISDEEERLQSKLSDPHAIEAEKFQCNLCNKTYSTFSGLAKHKQLHCDAQSRKSFSCKYCDKEYVSLGALKMHIRTHTLPCVCKICGKAFSRPWLLQGHIRTHTGEKPFSCPHCNRAFADRSNLRAHLQTHSDVKKYQCKNCSKTFSRMSLLHKHEESGCCVAH
notes: Slug (SNAI2), wild-type cDNA in lentiviral vector CD532A; 268 aa by the printed limits of the fragments; also called Flag-tagged Slug-FL; Flag-tagged Slug; source: HEK293T, expressed, in lysate; purified from HEK293T cells (for the GST pull-down)

How the values were obtained:
[1] = biological target: T1, Flag-PRMT5 (human, UniProt O14744 1-637); assay: pull-down; GST fusion proteins on glutathione-Sepharose 4B beads mixed with Flag-tagged proteins purified from HEK293T cells, 2 h at 4 °C; washed with 50 mM Tris-HCl pH 8.0, 0.2% NP-40, 150 mM NaCl, 2 mM EDTA; immunoblot; settings: both partners purified
T1 construct: Protein arginine methyltransferase 5 (PRMT5), wild-type cDNA in lentiviral vector CD532A; 637 aa by the printed domain limits; also called Flag-tagged full-length (FL) PRMT5; PRMT5-FL; source: HEK293T, co-expressed, in lysate; purified from HEK293T cells (for the GST pull-down)
T1 sequence (O14744 whole entry, the tested form may be a part): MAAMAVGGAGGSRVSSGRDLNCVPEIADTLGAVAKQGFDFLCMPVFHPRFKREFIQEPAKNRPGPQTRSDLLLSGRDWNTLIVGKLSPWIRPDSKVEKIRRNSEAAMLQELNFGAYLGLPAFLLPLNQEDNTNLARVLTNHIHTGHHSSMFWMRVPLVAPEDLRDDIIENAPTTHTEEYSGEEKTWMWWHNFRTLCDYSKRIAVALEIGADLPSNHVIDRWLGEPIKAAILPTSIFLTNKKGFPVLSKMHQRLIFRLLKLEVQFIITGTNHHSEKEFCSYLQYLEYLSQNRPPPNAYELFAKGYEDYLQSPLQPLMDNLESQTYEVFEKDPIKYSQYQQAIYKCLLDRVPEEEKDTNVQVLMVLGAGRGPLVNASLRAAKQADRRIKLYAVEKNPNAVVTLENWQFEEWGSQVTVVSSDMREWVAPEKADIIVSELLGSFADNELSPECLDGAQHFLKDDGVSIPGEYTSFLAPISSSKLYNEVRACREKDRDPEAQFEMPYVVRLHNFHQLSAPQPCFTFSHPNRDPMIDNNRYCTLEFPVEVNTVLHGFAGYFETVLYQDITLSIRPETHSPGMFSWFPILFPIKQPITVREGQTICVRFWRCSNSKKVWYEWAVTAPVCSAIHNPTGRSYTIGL

[2] = biological target: GST-fused LSD1 (human, UniProt O60341-2 1-876); assay: as above; settings: both partners purified

Binder	binding result [1]	binding result [2]
B1	binds	
B2		binds
